# In PMC4726530 (PLoS ONE, 2016):
# T1: GAOR2 (FAD site in M-subunit) (Sulfurisphaera tokodaii, UniProt Q974U9)
# T1 construct: gene ST0562; same native (LMS)2 complex as P2; M-subunit 278 aa holds FAD; Putative oxidoreductase iron-sulfur subunit (S-subunit)
# T1 sequence (Q974U9 1-278): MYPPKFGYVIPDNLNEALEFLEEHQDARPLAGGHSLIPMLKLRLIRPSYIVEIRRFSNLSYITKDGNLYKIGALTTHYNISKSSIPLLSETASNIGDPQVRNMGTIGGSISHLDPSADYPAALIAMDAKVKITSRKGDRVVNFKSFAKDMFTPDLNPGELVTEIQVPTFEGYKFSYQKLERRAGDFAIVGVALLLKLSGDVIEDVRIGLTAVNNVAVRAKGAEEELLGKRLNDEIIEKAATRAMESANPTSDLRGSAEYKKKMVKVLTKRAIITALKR
# T1 sequence (Q96Y29 1-706 partner): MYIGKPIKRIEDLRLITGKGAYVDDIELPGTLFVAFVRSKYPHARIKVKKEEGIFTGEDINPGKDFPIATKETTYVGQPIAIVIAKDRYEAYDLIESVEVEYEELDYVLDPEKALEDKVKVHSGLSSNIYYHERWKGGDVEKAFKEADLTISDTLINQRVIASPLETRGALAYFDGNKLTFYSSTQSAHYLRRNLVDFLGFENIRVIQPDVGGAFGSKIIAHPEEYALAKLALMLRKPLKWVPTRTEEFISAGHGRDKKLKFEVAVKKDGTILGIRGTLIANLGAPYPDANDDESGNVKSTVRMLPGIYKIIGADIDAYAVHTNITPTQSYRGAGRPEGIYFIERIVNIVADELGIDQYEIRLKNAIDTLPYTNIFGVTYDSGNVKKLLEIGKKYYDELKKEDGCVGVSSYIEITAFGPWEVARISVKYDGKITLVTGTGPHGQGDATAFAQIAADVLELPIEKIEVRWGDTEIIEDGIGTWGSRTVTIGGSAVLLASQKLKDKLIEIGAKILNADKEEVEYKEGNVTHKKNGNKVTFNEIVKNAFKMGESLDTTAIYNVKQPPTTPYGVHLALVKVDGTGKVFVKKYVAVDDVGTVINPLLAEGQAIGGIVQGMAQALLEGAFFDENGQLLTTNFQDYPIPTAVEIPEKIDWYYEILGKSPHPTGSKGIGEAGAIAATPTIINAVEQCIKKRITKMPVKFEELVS
# T1 sequence (Q974V0 1-168 partner): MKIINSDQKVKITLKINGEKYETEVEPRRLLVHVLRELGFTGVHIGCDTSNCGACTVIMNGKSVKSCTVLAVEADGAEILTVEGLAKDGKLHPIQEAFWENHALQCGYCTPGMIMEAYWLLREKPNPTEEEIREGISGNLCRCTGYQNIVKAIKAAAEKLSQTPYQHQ
# B1: GAOR3 (Sulfurisphaera tokodaii str. 7) (protein)
# chain: MYVGQRVKRKEDLKLITGSGRYIDDIEIPGNLYIAILRSSVAHAKLKKIEYSDVLKLNGVYGVITGLTIPVENRPRNFPMAKDEILYMGQPIAAVLAKDRYVAVDALDYISYDYEELPAVIDPEEAINSKVKAIEDYDNIIYKKTYSGGNAEEAYEKSDVKIEEKLVISRVYAAPMEPRGLVVDYQQDRLTVYASTQSPHYMRSFLLSAFGDKVNDIRVIQADVGGAFGSKLFPYPEDYIAVFAALTYKRPVKLVNTRRDDLFSTYHSRGQIHKVKVGASKDGKINSILDDLIIDLGAAWHGTYLADIPATLITGPYDIKNAKVNVFGVLTNKTPLDQYRGAGRPEAAFVYERIMDIVADELKIDPIELRRKNIIQSTPYKNVMGLTYDSGDYNALLTKAESYYREMEQRAEELRRQGKRVGVGLSFYIEQNNFGPWESASVRLLSNGKVEVVIGAAPHGQGTATGIAQIVADELEISIDDVEVTWGDTDKISNAFGTYGSRSLTLAGNAALLASRKLKENIMKLAAQFMKSDVEELQYKDGKVFNPKTGKSMTLKEIAIKVTSNLGGVWRYKAEPTLEATASFGFDNYTFPYGSHIAMVEVTDEGVVKVLDYVAIDDIGVVVNPMLAEGQVHGGVIQGFGETLLEQIVYDNNGNLLTSTFADYLIPSAVESFNMKWFYTEIGKSNAPLPAKGIGEGATIGAPPALIRAIERAIGKRLTALPVKMEELSK
# notes: LMS hetero-trimer; L 730 aa, M 278 aa, S 168 aa; 85 kDa by gel filtration; M-subunit); Putative oxidoreductase iron-sulfur subunit (S-subunit)
# B2: STK23390, molybdo-pyranopterin L-subunit of glyceraldehyde oxidoreductase GAOR2 (natural protein, UniProt Q96Y29 1-706, looked up)
# chain: T1 sequence (Q96Y29 1-706 partner)
# notes: STK23390, L-subunit of GAOR2, Sulfolobus tokodaii; Carries Mo-PCD; Cys405 and Cys689 form a disulfide bridge; also called L-subunit of GAOR2; ST23390
# What was measured:
# [1] = biological target: LMS hetero-trimer unit of GAOR1 (STK17810/STK17830/STK17820) (Sulfolobus tokodaii (endogenous, purified from the cells)); assay: SEC; Superdex 200 10/30 gel filtration in buffer II (20 mM Tris-HCl pH 7.5, 0.25 M NaCl), molecular weights estimated against protein standards; oligomer of LMS hetero-trimer units
# [2] = biological target: T1, GAOR2 (FAD site in M-subunit); assay: X-ray crystal structure, […] Å; type: binding; conditions: bound in M-subunit; co-purified with native enzyme; crystals at pH 4.5
# [3] = biological target: LMS hetero-trimer unit of GAOR2 (STK23390/STK05620/STK05610) (Sulfolobus tokodaii (endogenous, purified from the cells)); assay: SEC; Superdex 200 10/30 gel filtration in buffer II (20 mM Tris-HCl pH 7.5, 0.25 M NaCl), molecular weights estimated against protein standards; oligomer of LMS hetero-trimer units
# [4] = biological target: LMS hetero-trimer unit of GAOR2 (STK23390/STK05620/STK05610) (Sulfolobus tokodaii (endogenous, purified from the cells)); assay: crystal structure; GAOR2 purified from S. tokodaii, 8 mg/mL, sitting drop at 25°C, 0.1 M Na-acetate pH 4.5, 0.2 M CH3COONH4, 15% PEG 4,000; 2.2 Å; one LMS hetero-trimer in the asymmetric unit, (LMS)2 by crystallographic 2-fold symmetry
# purified protein [5] = substrate: O=C[C@H](O)CO; assay: purified protein; conditions: 0.1 mM DCPIP as electron acceptor, 50 mM MOPS-NaOH pH 7.0, 70°C
# purified protein [6] = substrate: O=CC(O)COP(=O)(O)O; assay: purified protein; type: biochemical, Sulfurisphaera tokodaii; conditions: 2 mM MV as electron acceptor, 50 mM MOPS-NaOH pH 7.0, 80°C
# purified protein [7] = substrate: O=CCc1c[nH]c2ccccc12; assay: purified protein; type: biochemical, Sulfurisphaera tokodaii; conditions: 2 mM MV as electron acceptor, 50 mM MOPS-NaOH pH 7.0, 80°C
# purified protein [8] = substrate: CC=O; assay: purified protein; type: biochemical, Sulfurisphaera tokodaii; conditions: 2 mM MV as electron acceptor, 50 mM MOPS-NaOH pH 7.0, 80°C
# [9] = biological target: the molecule itself; assay: crystal structure; GAOR2 purified from S. tokodaii, 8 mg/mL, sitting drop at 25°C, 0.1 M Na-acetate pH 4.5, 0.2 M CH3COONH4, 15% PEG 4,000; 2.2 Å; one LMS hetero-trimer in the asymmetric unit, (LMS)2 by crystallographic 2-fold symmetry
molecule,measurement,setting,value
LMS hetero-trimer unit of GAOR1 (STK17810/STK17830/STK17820) (complex),stoichiometry N,[1],4
Cc1cc2nc3c(=O)[nH]c(=O)nc-3n(C[C@H](O)[C@H](O)[C@H](O)COP(=O)(O)OP(=O)(O)OC[C@H]3O[C@@H](n4cnc5c(N)ncnc54)[C@H](O)[C@@H]3O)c2cc1C [FAD],"X-ray crystal structure, 2.2 Å",[2],"one Mo-PCD (L-subunit), one FAD (M-subunit), two [2Fe-2S] clusters"
LMS hetero-trimer unit of GAOR2 (STK23390/STK05620/STK05610) (complex),stoichiometry N,[3],2
same,stoichiometry N,[4],2
B1,Km,purified protein [5]; enzyme about 70% pure,11 ± 0 µM
same,kcat,purified protein [5]; enzyme about 70% pure,3.58 ± 0.11 s⁻¹
same,Km,purified protein [6]; enzyme about 70% pure,3.5 ± 1.1 µM
same,kcat,purified protein [6]; enzyme about 70% pure,0.43 ± 0.03 s⁻¹
same,Km,purified protein [7]; enzyme about 70% pure,370 ± 390 µM
same,kcat,purified protein [7]; enzyme about 70% pure,3.58 ± 2.49 s⁻¹
B2,Km,purified protein [5],30 ± 9 µM
same,kcat,purified protein [5],50.5 ± 0.05 s⁻¹
same,Km,purified protein [8],1330 ± 20 µM
same,kcat,purified protein [8],3.38 ± 0.02 s⁻¹
same,Km,purified protein [6],85 ± 5 µM
same,kcat,purified protein [6],0.65 ± 0.01 s⁻¹
same,Km,purified protein [7],92 ± 17 µM
same,kcat,purified protein [7],2.77 ± 0.22 s⁻¹
same,stoichiometry N,[9],2
